# Measurements as given in article doi:10.1101/2020.07.07.192757v1 (biorxiv, 2020).
# B1: AkPT1 (Angelica keiskei) (protein)
# chain: MILILTSSFSLRPQHGFATSLQSQRTQIHNSNKYKEYKSVMDFLPIASISKCSFGNSYRYKLVREQKVHSPTFCAQSTNEEFILQQKNNHIITPPQSSLWKNVDVFLRFCRLHSIIGGIVGLISISLLPVTSLGDLSPGFFTGLLKAIIPMALINTYTSCLNQVTDVEIDKVNKPHFVLASGEYTMEQGKAIGAALALMAFIMGIYFNSPSLLLGLVAYFFVGTAYSVKLPLLRWKKNPFLAAFVIINILLIVPIVSFIHTQTYVLGRPLVFTKPFAFSLFGNTMFGIALALMKDIPDMEGDKAFGIQTFSLMHGKRKVFDICRSIMLTVYGSAMLIGTLSSSPLNKLITVLGHGALGCILWTRSQSLNLDDVPAVESFYMFSWKLFYAEYLLVHFLR
# B2: CpPT1 (Citrus x paradisi) (protein)
# chain: MLLQMNLCSSFSLKYHPLQQNGTVKTFQSPLTQIYGLANRRESNKYSVKGSIQSSFCLTNNKIGNNEDMMNRYHKPLKKSTVPMALQDDSATKSQNENIVSTSFLDFLTKKLDAFYRLSRPYAWTSIIVGILSSSLLPIQSLADLTPTFLIEVLKPIVPSIMMNIFVVAINQLSDIAIDKVNKPNLPLVSGDISIGEAIAIAVISTLTSLAMGVMLRSPPLVIALILRCILGAAYSIDLPLLRWKASPLMAAVAIVIGNGINNVLPYFLHVQKYVLGRPVVFTKPLLFAVAFSAIFSIVLSFLKDIPDVEGDKKSGIRTLPVILGKERVLSMSTGILLMAYASAALAGVFSPILLCKLVTMIGHSVLGFILWSKAQTVDLSNAKSTYSFFLFIFQLYYTEFFLMHFVR
# Tests used:
# [1] = biological target: T1, AkPT1 (Angelica keiskei, UniProt A0A810JZD5); experiment: dimethylallyltransferase assay, HPLC, recombinant microsomes; type: cell-based; conditions: read-out: Apparent Km; co-substrate DMAPP; 10 mM MgCl2, pH 8.0, 30 °C
# T1 sequence (A0A810JZD5 1-398): B1 chain
# [2] = biological target: T2, CpPT1 (Citrus x paradisi, UniProt A0A810JZE7); experiment: geranyltransferase assay, LC product quantification, recombinant microsomes; conditions: read-out: Apparent Km; co-substrate GPP; 10 mM MgCl2, pH 7.6, 28 °C
# T2 sequence (A0A810JZE7 1-408 limits assumed): B2 chain
# [3] = substrate: CC(C)=CCOP(=O)(O)OP(=O)(O)O; experiment: dimethylallyltransferase assay, HPLC, recombinant microsomes; type: cell-based, Angelica keiskei; conditions: co-substrate bergaptol, 10 mM MgCl2, pH 8.0, 30 °C
# [4] = substrate: CC(C)=CCC/C(C)=C/COP(=O)(O)OP(=O)(O)O; experiment: cells, lysate or membranes; conditions: co-substrate bergaptol, 10 mM MgCl2, pH 7.6, 28 °C
# [5] = substrate: COc1cc(O)c2ccc(=O)oc2c1; experiment: cells, lysate or membranes; conditions: co-substrate GPP, 10 mM MgCl2, pH 7.6, 28 °C
# [6] = substrate: O=c1ccc2cc3ccoc3c(O)c2o1; experiment: cells, lysate or membranes; conditions: co-substrate GPP, 10 mM MgCl2, pH 7.6, 28 °C
# [7] = substrate: O=c1ccc2c(O)cc(O)cc2o1; experiment: cells, lysate or membranes; conditions: co-substrate GPP, 10 mM MgCl2, pH 7.6, 28 °C
# [8] = substrate: COc1c2ccoc2c(O)c2oc(=O)ccc12; experiment: cells, lysate or membranes; conditions: co-substrate GPP, 10 mM MgCl2, pH 7.6, 28 °C
molecule,measurement,setting,value
"O=c1ccc2c(O)c3ccoc3cc2o1 [compound 12, Bergaptol]",Km,[1],3.1 ± 0.3 µM
same,Km,[2],52 ± 4 µM
B1,Km,[3],1.8 ± 0.1 µM
B2,Km,[4],10 ± 1 µM
same,Km,[5],250 ± 30 µM
same,Km,[6],280 ± 20 µM
same,Km,[7],280 ± 30 µM
same,Km,[8],700 ± 100 µM
